Substitutions are numbered along the chain they refer to. Read-outs that look alike come from different tables or passages of the source.
B1: 460 (bispecific antibody)
heavy chain: QSVEESGGRLVTPGTPLTLTCTVSGFSLSSYAMNWVRQAPGKGLEWIGIISSSGSTYYASWAKGRFTISKTSTTVDLKITSPTTEDTATYFCARVGAGYAGYGYDNYYGMDPWGPGTLVTVSSASTKGPSVFPLAPSSKSTSGGTAALGCLVKDYFPEPVTVSWNSGALTSGVHTFPAVLQSSGLYSLSSVVTVPSSSLGTQTYICNVNHKPSNTKVDKRVEPKSCDKTHTCPPCPAPEAAGGPSVFLFPPKPKDTLMISRTPEVTCVVVDVSHEDPEVKFNWYVDGVEVHNAKTKPREEQYNSTYRVVSVLTVLHQDWLNGKEYKCKVSNKALPAPIEKTISKAKGQPREPQVYTLPPSREEMTKNQVSLTCLVKGFYPSDIAVEWESNGQPENNYKTTPPVLDSDGSFFLYSKLTVDKSRWQQGNVFSCSVLHEALHSHYTQKSLSLSPGK
light chain fused to scFv: AIQMTQSPSSLAASVGDTVTITCKASEDIGYGLNWYQQKLGIAPKLLIYGANTLESGVPSRFSGSGSETDYTLTISSVQAEDAGIYYCQQGYSTPLTFGAGTKVEIKRTVAAPSVFIFPPSDEQLKSGTASVVCLLNNFYPREAKVQWKVDNALQSGNSQESVTEQDSKDSTYSLSSTLTLSKADYEKHKVYACEVTHQGLSSPVTKSFNRGECDVPGGSGGGGSGGGGSGGGGSQMQLVQSGTEVKKPGESLKISCKGSGYGFITYWIGWVRQMPGKCLEWMGIIYPGDSETRYSPSFQGQVTISADKSINTAYLQWSSLKASDTAIYYCAGGSGISTPMDVWGQGTTVTVGGGGSGGGGSGGGGSGGGGSDIQLTQSPDSLAVSLGERATINCKSSQSVLYSSINKNYLAWYQQKPGQPPKLLIYWASTRESGVPDRFSGSGSGTDFTLTISSLQAEDVAVYYCQQYYSTPYTFGCGTKVEIK
notes: also called LC of P043.A.00020.D06 with a C-terminal fusion of a scFv of anti-S1 antibody; HC of P043.A.00020.D06 as IgG1-LALA-LS
B2: 454 (bispecific antibody)
heavy chain: QSVEESGGRLVTPGTPLTLTCTVSGFSLSKYAMSWVRQAPGKGLEWIGIISSGGSTYYASWAKGRFTISKTSSTTVDLKITSPTTEDTATYFCARAGYPGYSPHYFNIWGPGTLVTVSLASTKGPSVFPLAPSSKSTSGGTAALGCLVKDYFPEPVTVSWNSGALTSGVHTFPAVLQSSGLYSLSSVVTVPSSSLGTQTYICNVNHKPSNTKVDKRVEPKSCDKTHTCPPCPAPEAAGGPSVFLFPPKPKDTLMISRTPEVTCVVVDVSHEDPEVKFNWYVDGVEVHNAKTKPREEQYNSTYRVVSVLTVLHQDWLNGKEYKCKVSNKALPAPIEKTISKAKGQPREPQVYTLPPSREEMTKNQVSLTCLVKGFYPSDIAVEWESNGQPENNYKTTPPVLDSDGSFFLYSKLTVDKSRWQQGNVFSCSVLHEALHSHYTQKSLSLSPGK
light chain fused to scFv: B1 light chain fused to scFv with G32E, S63T, L96P
notes: also called LC of P043.A.00023.A08 with a C-terminal fusion of a scFv of anti-S1 antibody; HC of P043.A.00023.A08 as IgG1-LALA-LS
B3: 455 (bispecific antibody)
heavy chain: QSVEESGGRLVTPGTPLTLTCTVSGFSLSSYAMSWVRQAPGKGLEWIGIISSSGSTYYASWAKGRFTISKTSTTVDLKITSPTTEDTATYFCARAMYPGYSTGVYNIWGPGTLVTVSLASTKGPSVFPLAPSSKSTSGGTAALGCLVKDYFPEPVTVSWNSGALTSGVHTFPAVLQSSGLYSLSSVVTVPSSSLGTQTYICNVNHKPSNTKVDKRVEPKSCDKTHTCPPCPAPEAAGGPSVFLFPPKPKDTLMISRTPEVTCVVVDVSHEDPEVKFNWYVDGVEVHNAKTKPREEQYNSTYRVVSVLTVLHQDWLNGKEYKCKVSNKALPAPIEKTISKAKGQPREPQVYTLPPSREEMTKNQVSLTCLVKGFYPSDIAVEWESNGQPENNYKTTPPVLDSDGSFFLYSKLTVDKSRWQQGNVFSCSVLHEALHSHYTQKSLSLSPGK
light chain fused to scFv: B1 light chain fused to scFv with G32E, S93N, L96N
notes: also called LC of P043.A.00017.E07 with a C-terminal fusion of a scFv of anti-S1 antibody; HC of P043.A.00017.E07 as IgG1-LALA-LS
B4: 461 (bispecific antibody)
heavy chain: QSVEESGGRLVTPGTPLTLTCTVSGFSLSSYAMSWVRQAPGKGLEWIGIINSGRSTYYASWAKGRFTISKTSTTVDLKITSPTTEDTATYFCARDATSIGYYRYYGMDPWGPGTLVTVSSASTKGPSVFPLAPSSKSTSGGTAALGCLVKDYFPEPVTVSWNSGALTSGVHTFPAVLQSSGLYSLSSVVTVPSSSLGTQTYICNVNHKPSNTKVDKRVEPKSCDKTHTCPPCPAPEAAGGPSVFLFPPKPKDTLMISRTPEVTCVVVDVSHEDPEVKFNWYVDGVEVHNAKTKPREEQYNSTYRVVSVLTVLHQDWLNGKEYKCKVSNKALPAPIEKTISKAKGQPREPQVYTLPPSREEMTKNQVSLTCLVKGFYPSDIAVEWESNGQPENNYKTTPPVLDSDGSFFLYSKLTVDKSRWQQGNVFSCSVLHEALHSHYTQKSLSLSPGK
light chain fused to scFv: B1 light chain fused to scFv
notes: also called LC of P043.A.00018.C02 with a C-terminal fusion of a scFv of anti-S1 antibody; HC of P043.A.00018.C02 as IgG1-LALA-LS
B5: 462 (bispecific antibody)
heavy chain: QSVEESGGRLVTPGTPLTLTCTVSGFSLSSYAMSWVRQAPGKGLEWIGIISSSGTTYYASWAKGPFTISKTSTTVDLKITSPTTEDTATYFCARGGAGYGYAHYYGMDPWGPGTLVTVSSASTKGPSVFPLAPSSKSTSGGTAALGCLVKDYFPEPVTVSWNSGALTSGVHTFPAVLQSSGLYSLSSVVTVPSSSLGTQTYICNVNHKPSNTKVDKRVEPKSCDKTHTCPPCPAPEAAGGPSVFLFPPKPKDTLMISRTPEVTCVVVDVSHEDPEVKFNWYVDGVEVHNAKTKPREEQYNSTYRVVSVLTVLHQDWLNGKEYKCKVSNKALPAPIEKTISKAKGQPREPQVYTLPPSREEMTKNQVSLTCLVKGFYPSDIAVEWESNGQPENNYKTTPPVLDSDGSFFLYSKLTVDKSRWQQGNVFSCSVLHEALHSHYTQKSLSLSPGK
light chain fused to scFv: B1 light chain fused to scFv
notes: also called LC of P043.A.00024.C11 with a C-terminal fusion of a scFv of anti-S1 antibody; HC of P043.A.00024.C11 as IgG1-LALA-LS
B6: P043.A.00032.C04 (antibody, V domains shown)
VH: QSLEESGGRLVTPGTPLTLTCTASGFSLSSYWMSWVRQAPGKGLEWIGIIYVSGSTYYASWAKGRFTISKTSTTVDLKMTSLTTEDTATYFCARVDYSTGWPLFNIWGPGTLVTVSL
VL: AQVLTQTASPVSAAVGGTVTINCQSSQSVYDNNWLGWYQQKPGQPPKLLIYGASILASGVPSRFKGSGSGTQFTLTISDLESDDAATYYCQGGCSGNTFVFGGGTEVVVK
notes: also called 452; protein sample ID 452
B7: P043.A.00023.E05 (antibody, V domains shown)
VH: QSLEESGGRLVTPGTPLTLTCTVSGFSLSSYAMSWVRQAPGKGLEWIGIISSSGSTYYASWAKGRFTISKTSTTVDLKITSPTTEDTATYFCARDASSRGYYYYYGMDPWGPGTLVTVSS
VL: AIQMTQSPSSLAASVGDTVTITCKASEDIGYGLNWYQQKLGIAPKLLIYGANTLESGVPSRFSGSGSETDYTLTISSVQAEDAGIYYCQQGYSTPLTFGAGTKVEIK
notes: also called 443; protein sample ID 443
B8: P043.A.00017.E04 (antibody, V domains shown)
VH: QSVEESGGRLVTPGTPLTLTCTVSGFSLNNYAMNWVRQAPGKGLEWIGIISSSGNTYYANWAKGRFTISKTSTTVDLKITSPTTEDTATYFCARDSYPGYSPYYGMDPWGPGTLVTVSS
VL: B7 VL with G30A, A43T, D70H, S93N, L96P
B9: P043.A.00018.C02 (protein sample ID 450) (antibody, V domains shown)
VH: B7 VH with L3V, S51N, S53G, G54R, S97T, R99I, Y103R
VL: B7 VL
B10: P043.A.00024.C11 (protein sample ID 451) (antibody, V domains shown)
VH: B7 VH with L3V, S55T, R65P, D95G, A96G, S97A, S98G, R99Y, Y102A, Y103H
VL: B7 VL
B11: P043.A.00036.C07 (antibody, V domains shown)
VH: QSLEESGGDLVKPGASLTLTCTASGFSFSSSYWICWVRQAPGKGLEWIGCIYTGSGSTWYASWAKGRFTISKTSSTTVTLQMTSLTAADTATYFCARGYGSYMYDFWGPGTLVTVSS
VL: DVVMTQTPASVEAAVGGTVTIKCQASQSISTALAWYQQKPGQPPKLLIYSASTLESGVPSRFKGSGSGTEFTLAISDLESADAATYYCQGADGSSSSFGGGTEVVVK
notes: also called 448; protein sample ID 448

How the values were obtained:
[1] = target: T1, Mouse-Fc-tagged SARS-CoV2 S1-RBD (Sino Biologicals) recombinant protein (SARS-CoV-2, UniProt P0DTC2 319-541); test: ELISA on coated S1-RBD-mFc
T1 construct: domain: S1-RBD

[2] = target: T1, Mouse-Fc-tagged SARS-CoV2 S1-RBD (Sino …); test: competition ELISA: blocks S1-RBD-mFc binding to coated ACE-2 ECD
[3] = target: T2, Human-Fc-tagged SARS-CoV2 S1 recombinant protein (Sino Biologicals) (SARS-CoV-2, UniProt P0DTC2 16-685)
[4] = target: T1, Mouse-Fc-tagged SARS-CoV2 S1-RBD (Sino …); test: ELISA on coated S1-RBD-mFc; remark: listed apart in the source
[5] = target: T1, Mouse-Fc-tagged SARS-CoV2 S1-RBD (Sino …); test: competition ELISA: blocks S1-RBD-mFc binding to coated ACE-2 ECD; remark: listed apart in the source
[6] = target: T3, His-tagged SARS-CoV S1-RBD (Sino Biologicals) (SARS-CoV, UniProt P59594 306-527); test: ELISA on coated His-tagged SARS-CoV S1-RBD [D00020 Figure 8A continued]
T3 construct: domain: S1-RBD; Bought reagent

[7] = target: T2, Human-Fc-tagged SARS-CoV2 S1 …; test: ELISA on coated S1-hFc, 3 µg/ml; rabbit antibody in B-cell supernatant
[8] = target: T1, Mouse-Fc-tagged SARS-CoV2 S1-RBD (Sino …); test: SPR, S1-RBD-mFc captured via anti-mouse-Fc antibody, 1:1 model

Row | Binder | EC50 [1] [µg/mL] | IC50 [2] [µg/mL] | IC90 [2] [µg/mL] | IC50 [3] [µg/mL] | EC50 [4] [µg/mL] | IC50 [5] [µg/mL] | binding result [6] | EC50 [7] [µg/mL] | Kd [8] [nM] | koff [8] [s⁻¹] | kon [8] [M⁻¹ s⁻¹]
1 | B1 | 0.0153 | 0.0765 | 5.69 | – | – | – | – | – | – | – | –
2 | B2 | 0.0178 | 0.0435 | 0.453 | – | – | – | – | – | – | – | –
3 | B3 | 0.0116 | 0.0481 | 0.868 | – | – | – | – | – | – | – | –
4 | B4 | 0.0128 | 0.0525 | 0.913 | – | – | – | – | – | – | – | –
5 | B5 | 0.0119 | 0.0464 | 0.948 | – | – | – | – | – | – | – | –
6 | B6 | – | – | – | 0.0147 | 0.007 | 0.115 | no binding (tested: 1000 ng/ml) | 0.0265 | – | – | –
7 | B7 | – | – | – | 0.0082 | 0.0112 | 0.0349 | no binding (tested: 1000 ng/ml) | 0.0166 | 0.268 | 0.000263 | 982000
8 | B8 | – | – | – | 0.0093 | 0.0082 | 0.0321 | no binding (tested: 1000 ng/ml) | 0.0196 | 0.422 | 0.000327 | 445000
9 | B9 | 0.0077 | 0.0286 | 61.2 | 0.001 | 0.0082 | 0.0433 | no binding (tested: 1000 ng/ml) | 0.0017 | 0.398 | 0.000283 | 714000
10 | B10 | 0.0064 | 0.0391 | 99.2 | 0.0036 | 0.007 | 0.0423 | no binding (tested: 1000 ng/ml) | 0.0048 | 0.77 | 0.000307 | 398000
11 | B11 | – | – | – | 0.0141 | 0.007 | 0.0434 | no binding (tested: 1000 ng/ml) | 0.0387 | – | – | –

From patent publication US20230287088A1 (BIONTECH, published 2023)
